Results taken from publication PMC7797036.

Tests used:
[1] = biological target: APOBEC1 (A1), RNase A treated (UniProt P41238); test: fluorescence anisotropy
[2] = test system: APOBEC1 (A1), RNase A untreated; test: fluorescence anisotropy
APOBEC3H haplotype VII = test: fluorescence anisotropy
APOBEC3C = APOBEC3C (UniProt Q9NRW3 1-190); test: EMSA
Chain of APOBEC3C (Q9NRW3 whole entry): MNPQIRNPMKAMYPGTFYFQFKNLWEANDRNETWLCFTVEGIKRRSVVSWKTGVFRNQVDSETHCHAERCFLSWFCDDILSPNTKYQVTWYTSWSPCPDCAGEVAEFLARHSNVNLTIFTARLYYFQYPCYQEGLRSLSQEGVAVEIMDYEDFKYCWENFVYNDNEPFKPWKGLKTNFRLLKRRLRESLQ

Chain of APOBEC1 (A1), RNase A treated (P41238 whole entry): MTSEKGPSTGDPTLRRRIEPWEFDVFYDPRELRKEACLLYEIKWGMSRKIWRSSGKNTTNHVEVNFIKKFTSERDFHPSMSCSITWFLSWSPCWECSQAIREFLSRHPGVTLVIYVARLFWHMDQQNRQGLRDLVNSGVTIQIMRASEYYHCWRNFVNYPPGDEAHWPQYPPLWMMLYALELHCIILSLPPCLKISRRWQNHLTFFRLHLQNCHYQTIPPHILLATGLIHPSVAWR

Row | Molecule | Kd [1] [µM] | binding signal (fold Kd increase vs no RPA) [1] | Kd [2] [µM] | binding signal (fold Kd increase vs no RPA) (APOBEC3H haplotype VII) | binding result (APOBEC3C)
1 | 118 nt ssDNA with two 5'TTC motifs 63 nt apart | 0.343 | 9 | 0.351 | 3 | –
2 | ATTATTATTATTCGAATGGATTTATTTATTTATTTATTTATTT (ssDNA) [43 nt ssDNA] | – | – | – | – | binds
